What all share (format): biochemical, Saccharomyces cerevisiae
Substrate in series [1]: N[C@@H](CO)C(=O)O
The experiment in a line: CBL-LDH coupled-coupled CBS assay, tScCBS. The note with it: other: tScCBS, substrate varied with 2 mM Hcy, pH 8.9. On the procedure:
(§1) CBS coupled-coupled assay. CBS canonical activity utilizing Ser and Hcy was determined using cystathionine beta-lyase (CBL) and lactate-dehydrogenase (LDH) coupled-coupled assay as described previously with a few modifications. Native L-LDH from rabbit muscle was purchased from Sigma (catalog no. L2500) and recombinant CBL was purchased from Creative Enzymes (catalog no. NATE-1146). In a final volume of 150 µL, the reaction mixture contained 50 mM Tris–HCl pH 8.9, 20 µM PLP, 500 µM NADH, 1.3 µM LDH, 0.1 µM CBL, 0–20 mM Ser (or 0–50 mM Cys) and 500 ng of tScCBS or HsCBS. Assays with HsCBS were carried out in the absence or presence of 500 µM CBS allosteric activator S-adenosylmethionine (SAM). The reaction was triggered by the addition of 2 mM Hcy and the oxidation of NADH to NAD^+ was followed by monitoring the decrease in absorbance at 340 nm over time (ε340 = 6220 M^−1.cm^−1). […] All measurements were performed in triplicates using Tecan Infinite 200 PRO microplate reader. Kinetic data were analyzed using GraphPad Prism software.

Substrate in series [2]: N[C@@H](CS)C(=O)O
The experiment in a line: CBL-LDH coupled-coupled CBS assay, tScCBS. As to conditions: other: tScCBS, substrate varied with 2 mM Hcy, pH 8.9. How it is done:
as §1

Substrate in series [3]: N[C@@H](CS)C(=O)O
Put plainly: CBS H2S production assay (AzMC fluorometric), tScCBS. The note with it: other: tScCBS, Cys + Hcy, pH 8.6, 37.0 °C. How it is done:
CBS H2S production assay. H2S-producing activity of CBS, utilizing Cys and Hcy, was determined using a fluorometric assay employing the H2S-selective fluorescent probe 7-azido-4-methylcoumarin (AzMC) as described previously. The reaction mixture in a total volume of 200 µL contained 50 mM Tris–HCl pH 8.6, 5 μM PLP, 2 mM Hcy, 10 μM AzMC and 500 ng tScCBS or HsCBS. The plate was incubated for 10 min at 37°C and the enzymatic activity was triggered by adding 0–50 mM Cys. The fluorescence of the mixtures at 450 nm (excited at 365 nm) was followed for 2 h at 37°C. All measurements were performed in triplicates using Tecan Infinite 200 PRO microplate reader. Kinetic data were analyzed using GraphPad Prism software.

B1: tScCBS (Saccharomyces cerevisiae S288C) (protein)
chain: MTKSEQQADSRHNVIDLVGNTPLIALKKLPKALGIKPQIYAKLELYNPGGSIKDRIAKSMVEEAEASGRIHPSRSTLIEPTSGNTGIGLALIGAIKGYRTIITLPEKMSNEKVSVLKALGAEIIRTPTAAAWDSPESHIGVAKKLEKEIPGAVILDQYNNMMNPEAHYFGTGREIQRQLEDLNLFDNLRAVVAGAGTGGTISGISKYLKEQNDKIQIVGADPFGSILAQPENLNKTDITDYKVEGIGYDFVPQVLDRKLIDVWYKTDDKPSFKYARQLISNEGVLVGGSSGSAFTAVVKYCEDHPELTEDDVIVAIFPDSIRSYLTKFVDDEWLKKNNLWDDDVL
notes: 6xHis (C); made in house
Take B1: in series [1], the Michaelis-Menten constant (Km) was 2.0 ± 0.4 mM, the maximum rate (Vmax) came to 4.18 µmol/min/mg, the kcat came to 2.7 ± 0.1 s⁻¹ and the kcat/Km is 1340 M⁻¹ s⁻¹. In series [2], the Km was found to be 2.5 ± 0.2 mM, the kcat worked out at 1.7 ± 0.1 s⁻¹ and the kcat/Km was found to be 690 M⁻¹ s⁻¹. Moreover, in series [3], the Km is reported as 6.7 ± 1.5 mM, the kcat was found to be 3.4 ± 0.3 s⁻¹ and the kcat/Km worked out at 510 M⁻¹ s⁻¹.

The values are drawn from article PMC9304066, “H2S biogenesis by cystathionine beta-synthase: mechanism of inhibition by aminooxyacetic acid and unexpected role of serine” (Cellular and Molecular Life Sciences: CMLS, 2022).
